Target: PDGF-BB (UniProt P01127 P01127:82-190)
Test: SPR; aptamer on DNA honeycomb on gold; phosphate buffer 137 mM NaCl, 2.7 mM KCl, 1 mM MgCl2, pH 7.4
Details: chain copies: 2 (homodimer, inferred)
Description: The sensing surface was then exposed to the Platelet-derived growth factor aptamer which had been modified, as in Table III (SEQ ID NO:16), to include a 25 bp poly A tail at a concentration of 50 nM in 10 mM Tris pH 7.4 1 M NaCl 1 mM EDTA and incubated for an hour.
The sensing surface was washed with 10.1 mM Na₂HPO₄, 1.8 mM KH₂PO₄, 137 mM NaCl and 2.7 mM KCl, 1 mM MgCl2, pH 7.4. Detection of PDGF was performed in the same buffer where the surface was exposed to increasing concentrations of the ligands and response was recorded.

Sequence of PDGF-BB (P01127 82-190, one chain of several): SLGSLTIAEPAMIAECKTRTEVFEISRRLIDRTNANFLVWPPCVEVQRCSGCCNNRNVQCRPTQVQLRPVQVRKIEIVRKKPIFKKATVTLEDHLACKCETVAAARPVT

B1: PDGF-BB aptamer with 25-nt poly A tail (SEQ ID NO: 16), on honeycomb DNA scaffold (ssDNA)
DNA: CACAGGCTACGGCACGTAGAGCATCACCATGATCCTGTGAAAAAAAAAAAAAAAAAAAAAAAAA
Q: For B1, which Kd is on record?
A: Its Kd is 28 nM.
